Reference: patent publication US20200399381A1 (I MAB BIOPHARMA US, published 2020)
Positions count from the first letter of the chain named.

T1: human IFNAR-1 on cells (human, UniProt P17181 28-557)
T1 sequence (looked up): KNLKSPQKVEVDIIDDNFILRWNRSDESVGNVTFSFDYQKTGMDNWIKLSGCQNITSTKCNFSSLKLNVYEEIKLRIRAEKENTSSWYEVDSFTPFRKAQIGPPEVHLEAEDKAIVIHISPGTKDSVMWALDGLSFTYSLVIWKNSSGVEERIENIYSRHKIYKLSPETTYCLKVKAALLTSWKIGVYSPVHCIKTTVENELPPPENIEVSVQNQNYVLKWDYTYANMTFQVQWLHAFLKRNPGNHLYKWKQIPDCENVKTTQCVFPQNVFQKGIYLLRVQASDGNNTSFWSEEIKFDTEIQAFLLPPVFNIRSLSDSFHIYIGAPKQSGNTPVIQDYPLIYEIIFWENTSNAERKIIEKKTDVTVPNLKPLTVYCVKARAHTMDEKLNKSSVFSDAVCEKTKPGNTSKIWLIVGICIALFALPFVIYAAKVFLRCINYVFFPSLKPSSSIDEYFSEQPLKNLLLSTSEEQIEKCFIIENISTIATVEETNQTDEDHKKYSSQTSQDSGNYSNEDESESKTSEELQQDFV

T2: human IFNAR-1 protein (form not stated) (human, UniProt P17181 28-436, limits assumed)
T2 construct: bispecific ELISA
T2 sequence (looked up): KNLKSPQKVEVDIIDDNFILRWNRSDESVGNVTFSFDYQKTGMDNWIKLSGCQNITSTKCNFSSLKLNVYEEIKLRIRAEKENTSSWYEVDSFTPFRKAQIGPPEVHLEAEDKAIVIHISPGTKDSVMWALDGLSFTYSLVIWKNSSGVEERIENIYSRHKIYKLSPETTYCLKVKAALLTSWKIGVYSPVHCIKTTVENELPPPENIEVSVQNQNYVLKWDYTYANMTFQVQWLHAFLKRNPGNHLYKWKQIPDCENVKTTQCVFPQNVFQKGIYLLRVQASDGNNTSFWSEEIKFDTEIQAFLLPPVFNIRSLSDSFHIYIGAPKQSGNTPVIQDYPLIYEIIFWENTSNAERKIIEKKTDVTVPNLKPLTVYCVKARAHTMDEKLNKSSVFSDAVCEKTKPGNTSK

T3: recombinant His-tagged human IFNAR-1-ECD protein (human, UniProt P17181 28-436)
T3 construct: extracellular domain; the Biacore text says His-tagged human IFNAR-1-ECD; also called His-tagged IFNAR-1; hIFNAR-1 protein; not shown: His tag
T3 sequence (looked up): T2 sequence (looked up)

B1: 485G10 chimeric antibody (antibody, V domains shown)
VH: EVQLQQSGAELVKPGASVKLSCTGSGFNIKDYYIHWVKQRTEQGLEWIGRIDPEDGETKYAPKFQGKATITADTSSNTAYLQLSSLTSEDTVVYYCGRYHGYWALDYWGQGTSVTVSS
VL: DIVMTQSQKFMSTSVGDRVSVTCKTSQNVGTNVAWYQQKPGQSPKPLIYSTSYRYSGVPDRFTGSGSGTDFTLIISNVQSEDLAEYFCHQYFSYPYTFGGGTLLEIK
B2: 485G10-H1L3 (antibody, V domains shown)
VH: QVQLVQSGAEVKKPGASVKVSCKASGFNIKDYYIHWVRQAPGQGLEWMGRIDPEDAETKYAPKFQGRVTMTADTSISTAYMELSRLRSDDTVVYYCARYHGYWALDYWGQGTLVTVSS
VL: DIQMTQSPSSLSTSVGDRVTITCKTSQNVGTNVAWYQQKPGKAPKPLIYSTSYRYSGVPSRFSGSGSGTDFTLTISSVQPEDFATYYCHQYFSYPYTFGPGTKLDIK
notes: Humanized IgG expressed in HEK293; also called VH1 + VL3 (485G10)
B3: 485G10-H2L3 (antibody, V domains shown)
VH: B2 VH with V20L, R38K, M48I, A97G
VL: B2 VL
notes: Humanized IgG expressed in HEK293; also called VH2 + VL3 (485G10)
B4: 485G10-H1L4 (antibody, V domains shown)
VH: B2 VH
VL: B2 VL with I21V
notes: Humanized IgG expressed in HEK293; also called VH1 + VL4 (485G10)
B5: 485G10-H1L2 (antibody, V domains shown)
VH: B2 VH
VL: B2 VL with V78L, L104V
notes: Humanized IgG expressed in HEK293; also called VH1 + VL2 (485G10)
B6: 4D8 (antibody, V domains shown)
VH: EVRLQQSGAELVQPGASVKLSCTGFGFNIKDYYMHWVKQRTEQGLEWIGRIDPEDAETKYAPKFQGQATITADTSSNTAYVQVSSLSSEDTAVYYCARGGNFYVMDYWGQGTSVTVSS
VL: B1 VL with T25A, A34V, P46V, T51A, H89Q, Y91K, F92N, L103K
notes: Hybridoma-derived monoclonal antibody; Chimeric human IgG1 Fc versions were also made
B7: 34H8 (antibody, V domains shown)
VH: EVQLLQSGAELVKPGASVRLSCTASGFNIKDYYLHWVKQRTEQGLEWIGRIDPEDGETKYAPKFQGKATITTDTSSNTAYLQLSSLTSEDTAVYYCTRGGNYDVMDYWGQGTSVTVSS
VL: DIVMTQSQKFMSTSVGDRVSVTCKASQNVGTYVVWYQQKPGQSPKALIYSASYRYSGVPDRFTGSGSGTDFTLTIGNVQSEDLAEYFCQQKNTYPFTFGGGTKLEIE
notes: Hybridoma-derived monoclonal antibody
B8: 8G11 (antibody, V domains shown)
VH: B6 VH with R3Q, Q13K, T41A, A56G, Q67K, V81L, S87T
VL: B7 VL with Y32N, A46V, Y55V, T74I, G76S, T93N, F96Y, E107K
notes: Hybridoma-derived monoclonal antibody; also called mouse antibody 8G11
B9: 107E12 (antibody, V domains shown)
VH: EVQLQQSGAEFVKPGASVKLSCTASGFNIKDYYIHWVTQKTEQGLEWIGRIDPEDGETKYAPKFQDKATITADSSSNTAYLQLSSLTSVDTAVYFCSREGSFTGWFPYWGQGTLVSVSA
VL: DIVMTQSQKFMSTSVGDRVSVTCKARQSVGTYVAWYQQKPGQSPKALIYSTSYRYNGVPDRFTGSGSGTDFTLTISNVQSEDLADYFCQQYHSYPYTFGGGTKLEIK
notes: as for B7
B10: 8G11-H2L1 (antibody, V domains shown)
VH: QVQLVQSGAEVVKPGASVKVSCKGSGFNIKDYYMHWVRQAPGQGLEWIGRIDPEDAETKYAPKFQGRVTMTADTSTSTVYMELSSLRSEDTAVYYCARGGNFYVMDYWGQGTLVTVSS
VL: DIQLTQSPSFLSASVGDRVTITCKASQNVGTNVVWYQQKPGKAPKLLIYSASYRVSGVPSRFSGSGSGTEFTLTISSLQPEDFATYYCQQKNNYPYTFGQGTKLEIK
notes: Humanized IgG expressed in HEK293; also called VH2 + VL1 (8G11)
B11: 8G11-H1L1 (antibody, V domains shown)
VH: B10 VH with V12K, G24A, I48M, A72R
VL: B10 VL
notes: Humanized IgG expressed in HEK293; also called VH1 + VL1 (8G11)
B12: 8G11-H4L3 (antibody, V domains shown)
VH: B10 VH with V20L, R38K, V68A, M70I, V79A, M81L
VL: B10 VL with A13T, A43S, L46V, T74I, L78V, Y87F
notes: Humanized IgG expressed in HEK293; also called VH4 + VL3 (8G11)
B13: 8G11-H2L2 (antibody, V domains shown)
VH: B10 VH
VL: B10 VL with A13T, A43S, L46V, T74I
notes: Humanized IgG expressed in HEK293; also called VH2 + VL2 (8G11)

Target: T1, human IFNAR-1 on cells
Assay: cell-based or functional assay

B1 was tested, and the “EC50 (nM), IFNα2b-mediated anti-viral assay (Huh7-Con1b HCV replicon luciferase)” value was 16.3 nM.

Target: T2, human IFNAR-1 protein (form not stated)
Assay: affinity measurement of purified IgG at different concentrations (method not named)

Going from B2 to B3, the Kd rises from 1.24 nM to 1.96 nM (1.6-fold). The first binds more tightly here.

B4 and B5 are within 1.5-fold of each other in Kd: 1.32 nM for the first, 1.55 nM for the second.

Compared with B2, B3 is 1.6-fold higher in koff: 0.000232 s⁻¹ for the first, 0.000366 s⁻¹ for the second.

B4 and B5 are within 1.5-fold of each other in koff: 0.000259 s⁻¹ for the first, 0.000321 s⁻¹ for the second.

B2 and B3 are within 1.5-fold of each other in kon: 187000 M⁻¹ s⁻¹ for the first, 186000 M⁻¹ s⁻¹ for the second.

B4 and B5 are within 1.5-fold of each other in kon: 196000 M⁻¹ s⁻¹ for the first, 207000 M⁻¹ s⁻¹ for the second.

Target: T1, human IFNAR-1 on cells
Assay: cell-based or functional assay
Remark: another data set of the same source

B6 and B7 are within 1.5-fold of each other in “EC50 (nM), inhibition of IFNα2b-induced SEAP reporter in HEK-Blue IFNα/β cells” value: 0.46 nM for the first, 0.56 nM for the second.

First: B8
Second: B9
The “EC50 (nM), inhibition of IFNα2b-induced SEAP reporter in HEK-Blue IFNα/β cells” value of the first is 2.6-fold lower: 0.465 nM for the first, 1.21 nM for the second.

Target: T2, human IFNAR-1 protein (form not stated)
Assay: affinity measurement of purified IgG at different concentrations (method not named)
Remark: another data set of the same source

Going from B10 to B11, the Kd rises from 0.403 nM to 1.36 nM (3.4-fold). The first binds more tightly here.

Going from B12 to B13, the Kd rises from 0.22 nM to 0.419 nM (1.9-fold).

First: B10
Second: B11
The koff of the first is 2.4-fold lower: 9.24e-05 s⁻¹ for the first, 0.000219 s⁻¹ for the second.

First: B12
Second: B13
The koff of the first is 1.7-fold lower: 7.47e-05 s⁻¹ for the first, 0.000125 s⁻¹ for the second.

B10 and B11 are within 1.5-fold of each other in kon: 229000 M⁻¹ s⁻¹ for the first, 161000 M⁻¹ s⁻¹ for the second.

B12 and B13 are within 1.5-fold of each other in kon: 340000 M⁻¹ s⁻¹ for the first, 298000 M⁻¹ s⁻¹ for the second.

Target: T3, recombinant His-tagged human …
Assay: ELISA, coated His-tagged IFNAR-1
Description: This example tested the binding properties of the anti-IFNAR-1 mouse antibodies to the human IFNAR-1 proteins by ELISA assay. In short, His-tagged IFNAR-1 was coated at 0.5 μg/ml overnight and then blocked by 5% BSA in PBS. Serial diluted anti-IFNAR-1 antibodies were incubated with the coated antigen for 1 h at room temperature. The resulting plates were washed with PBS/T and incubated with goat anti-mouse IgG-HRP for 1 h at room temperature. The plates were developed with TMB substrate and analyzed by spectrophotometer at OD 450-630 nm.

B6 and B7 are within 1.5-fold of each other in EC50: 0.067 nM for the first, 0.064 nM for the second.

B8 and B9 are within 1.5-fold of each other in EC50: 0.069 nM for the first, 0.075 nM for the second.

Target: T3, recombinant His-tagged human …
Assay: SPR (Biacore T200), antibody captured, His-tagged IFNAR-1-ECD as analyte
Description: The binding of the antibodies to recombinant His-tagged human IFNAR-1-ECD protein was examined by Biacore T200 using a capture method. The anti-IFNAR-1 antibodies were captured using anti-human Fc antibody or Protein A which were coated on chip. The serial concentrations of his-tagged human IFNAR-1-ECD protein (0-8 nM) were injected over capture antibodies at the flow rate of 30 μl/min. The dissociation phases were 600 s or 1200 s.

First: B6
Second: B7
The Kd of the first is 2.1-fold higher: 0.039 nM for the first, 0.0186 nM for the second. The second binds more tightly here.

Binder B8 has a Kd of 0.0271 nM.

First: B6
Second: B7
The koff of the first is 2-fold higher: 9.03e-05 s⁻¹ for the first, 4.41e-05 s⁻¹ for the second.

In the case of B8, the koff is reported as 6.4e-05 s⁻¹.

B6 and B7 are within 1.5-fold of each other in kon: 2.31e+06 M⁻¹ s⁻¹ for the first, 2.37e+06 M⁻¹ s⁻¹ for the second.

B8 showed a kon of 2.36e+06 M⁻¹ s⁻¹.

Target: T2, human IFNAR-1 protein (form not stated)
Assay: affinity ranking of expressed humanized 8G11 IgGs (method not named)

Going from B10 to B11, the Kd rises from 0.439 nM to 0.662 nM (1.5-fold). The first binds more tightly here.

B12 and B13 are within 1.5-fold of each other in Kd: 0.284 nM for the first, 0.328 nM for the second.

B10 and B11 are within 1.5-fold of each other in koff: 8.84e-05 s⁻¹ for the first, 9.83e-05 s⁻¹ for the second.

B12 and B13 are within 1.5-fold of each other in koff: 8.52e-05 s⁻¹ for the first, 9.42e-05 s⁻¹ for the second.

B10 and B11 are within 1.5-fold of each other in kon: 202000 M⁻¹ s⁻¹ for the first, 148000 M⁻¹ s⁻¹ for the second.

B12 and B13 are within 1.5-fold of each other in kon: 301000 M⁻¹ s⁻¹ for the first, 287000 M⁻¹ s⁻¹ for the second.

Target: T2, human IFNAR-1 protein (form not stated)
Assay: affinity ranking of expressed humanized 485G10 IgGs (method not named)

First: B2
Second: B3
The Kd of the first is 2.6-fold lower: 0.325 nM for the first, 0.848 nM for the second. The first binds more tightly here.

B4 and B5 are within 1.5-fold of each other in Kd: 0.66 nM for the first, 0.652 nM for the second.

Compared with B2, B3 is 2.4-fold higher in koff: 0.000101 s⁻¹ for the first, 0.000238 s⁻¹ for the second.

B4 and B5 are within 1.5-fold of each other in koff: 0.000216 s⁻¹ for the first, 0.000201 s⁻¹ for the second.

B2 and B3 are within 1.5-fold of each other in kon: 311000 M⁻¹ s⁻¹ for the first, 281000 M⁻¹ s⁻¹ for the second.

B4 and B5 are within 1.5-fold of each other in kon: 327000 M⁻¹ s⁻¹ for the first, 308000 M⁻¹ s⁻¹ for the second.
